T1: Yhr016c SH3 (YSC84_YEAST), P32793
T1 chain: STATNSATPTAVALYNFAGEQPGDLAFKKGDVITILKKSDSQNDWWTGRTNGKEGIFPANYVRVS

T2: Boi1 SH3 (BOI1_YEAST), P38041
T2 chain: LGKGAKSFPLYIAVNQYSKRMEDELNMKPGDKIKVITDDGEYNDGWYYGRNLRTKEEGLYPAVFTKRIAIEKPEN

T3: Myo5 SH3 (MYO5_YEAST), Q04439
T3 chain: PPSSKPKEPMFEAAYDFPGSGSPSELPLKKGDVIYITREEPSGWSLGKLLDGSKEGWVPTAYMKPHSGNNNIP

T4: Yfr024 SH3 (LSB3_YEAST), P43603
T4 chain: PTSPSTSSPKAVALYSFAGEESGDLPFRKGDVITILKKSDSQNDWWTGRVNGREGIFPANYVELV

T5: Boi2 SH3 (BOI2_YEAST), P39969
T5 chain: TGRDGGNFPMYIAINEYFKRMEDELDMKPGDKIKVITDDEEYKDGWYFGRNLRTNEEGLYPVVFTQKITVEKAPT

T6: Rvs167 SH3 (RV167_YEAST), P39743
T6 chain: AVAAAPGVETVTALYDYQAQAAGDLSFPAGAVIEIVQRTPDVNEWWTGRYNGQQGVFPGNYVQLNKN


Experiments:
Test in all cases: SPOT array
[1] = target: T1, Yhr016c SH3 (YSC84_YEAST), P32793
[2] = target: T2, Boi1 SH3 (BOI1_YEAST), P38041
[3] = target: Sho1 SH3 (SHO1_YEAST), P40073
Chain of Sho1 SH3 (SHO1_YEAST), P40073 (P40073 295-366): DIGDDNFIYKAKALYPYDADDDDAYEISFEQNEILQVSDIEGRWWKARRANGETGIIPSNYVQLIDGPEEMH

[4] = target: T3, Myo5 SH3 (MYO5_YEAST), Q04439
[5] = target: T4, Yfr024 SH3 (LSB3_YEAST), P43603
[6] = target: T5, Boi2 SH3 (BOI2_YEAST), P39969
[7] = target: T6, Rvs167 SH3 (RV167_YEAST), P39743

| Binder | normalised SPOT signal, Boehringer light units (BLU); mean over the file's lines of this peptide [1] | normalised SPOT signal, Boehringer light units (BLU); mean over the file's lines of this peptide [2] | normalised SPOT signal, Boehringer light units (BLU); mean over the file's lines of this peptide [3] | normalised SPOT signal, Boehringer light units (BLU); mean over the file's lines of this peptide [4] | normalised SPOT signal, Boehringer light units (BLU); mean over the file's lines of this peptide [5] | normalised SPOT signal, Boehringer light units (BLU); mean over the file's lines of this peptide [6] | normalised SPOT signal, Boehringer light units (BLU); mean over the file's lines of this peptide [7] |
| --- | --- | --- | --- | --- | --- | --- | --- |
| MRRSKDAPIEPPKY [YOR346W 669-682] | 1050 | 555 | 149 | 155 | 2300 | 688 | 1200 |
| MSWSKERPESPLSR [YDR265W 311-324] | 168 | 1020 | 155 | 268 | 1750 | 104 | 243 |
| NDNEKKKPSSPTAA [YLL010C 80-93] | 20.6 | 212 | 39.5 | 98.5 | 36.9 | 61 | 80.7 |
| NDMAKPLPTPPTAE [YOR188W 2-15] | 203 | 71 | 13000 | 114 | 710 | 54 | 56.7 |
| NEFAKFAPDLPVLK [YFR038W 287-300] | 7.9 | 24.4 | 99.4 | 135 | 132 | 12.3 | 69 |
| NAQLRKTPLEPGLE [YDL126C 668-681] | 79.9 | 156 | 48.6 | 176 | 371 | 88.8 | 116 |
| NAPERAVPILPPRN [YBR108W 539-552] | 36600 | 3280 | 52.7 | 741 | 24400 | 83 | 16500 |
| NAPPRIFPKAPIYG [YDR283C 1060-1073] | 186 | 8550 | 140 | 168 | 2080 | 40.1 | 156 |
| MQSKKEDPNRPKNL [YMR241W 242-255] | 126 | 898 | 44.8 | 154 | 716 | 50.2 | 153 |
| MTQPKKNPMEPKTD [YDL148C 252-265] | 60.7 | 37.8 | 15.9 | 147 | 404 | 76.8 | 181 |
| NDDKKTEPDKPAFS [YJL041W 186-199] | 37.1 | 52.4 | 26 | 140 | 63.4 | 17.3 | 47.9 |
| MPNLKRLPIPPLQD [YAR035W 1-14] | 83.4 | 80.9 | 24500 | 307 | 489 | 23 | 65.7 |
| MTVPRNRPMAPFGT [YLR064W 1-14] | 213 | 1210 | 186 | 596 | 466 | 55.2 | 187 |
| MYDRKVIPRMPWHD [YKR031C 861-874] | 742 | 7810 | 569 | 357 | 1600 | 395 | 1490 |
| MYGSKFIPFGPKSQ [YER038C 415-428] | 118 | 131 | 145 | 290 | 898 | 326 | 375 |
| NDLVKRFPEQPPLR [YBR195C 105-118] | 1430 | 75800 | 12100 | 21400 | 1590 | 4920 | 23000 |

Reference: paper PMC314469, “Protein Interaction Networks by Proteome Peptide Scanning” (PLoS Biology, 2004)
